Common to all, as to assay: cell-based or functional assay
Assay [1] concerns the target T1, IFN-gamma receptor on HEK-Dual cells (Human IFN-γ SEAP/Luciferase Reporter Cells, hkd-ifng).
T1 sequence (P15260 whole entry, looked up): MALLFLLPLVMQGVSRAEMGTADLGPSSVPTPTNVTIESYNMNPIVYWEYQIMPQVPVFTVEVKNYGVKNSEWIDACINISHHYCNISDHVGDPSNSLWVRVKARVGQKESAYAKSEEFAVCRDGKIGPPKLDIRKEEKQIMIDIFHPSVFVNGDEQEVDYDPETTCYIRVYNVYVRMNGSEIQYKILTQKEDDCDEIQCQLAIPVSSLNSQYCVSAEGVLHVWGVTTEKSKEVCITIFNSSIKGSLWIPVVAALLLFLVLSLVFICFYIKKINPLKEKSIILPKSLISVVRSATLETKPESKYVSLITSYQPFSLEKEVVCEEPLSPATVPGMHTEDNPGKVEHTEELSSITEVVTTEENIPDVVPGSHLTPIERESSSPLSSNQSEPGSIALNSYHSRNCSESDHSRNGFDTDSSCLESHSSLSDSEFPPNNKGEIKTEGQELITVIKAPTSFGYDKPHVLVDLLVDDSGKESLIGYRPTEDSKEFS
T1 sequence (P38484 whole entry, looked up): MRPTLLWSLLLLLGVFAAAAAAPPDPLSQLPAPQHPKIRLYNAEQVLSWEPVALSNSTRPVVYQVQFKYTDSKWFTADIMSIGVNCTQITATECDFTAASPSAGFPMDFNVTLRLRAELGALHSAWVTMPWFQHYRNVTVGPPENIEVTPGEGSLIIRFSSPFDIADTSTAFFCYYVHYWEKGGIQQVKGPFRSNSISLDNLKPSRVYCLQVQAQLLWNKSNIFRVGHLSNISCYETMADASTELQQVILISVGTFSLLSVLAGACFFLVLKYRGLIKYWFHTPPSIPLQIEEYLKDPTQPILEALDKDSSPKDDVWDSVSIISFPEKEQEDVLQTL

Assay [2] deals with T2, IL-10 receptors R1 and R2 on HEK-Blue IL-10 reporter cells (UniProt Q13651).
T2 sequence (looked up) 1: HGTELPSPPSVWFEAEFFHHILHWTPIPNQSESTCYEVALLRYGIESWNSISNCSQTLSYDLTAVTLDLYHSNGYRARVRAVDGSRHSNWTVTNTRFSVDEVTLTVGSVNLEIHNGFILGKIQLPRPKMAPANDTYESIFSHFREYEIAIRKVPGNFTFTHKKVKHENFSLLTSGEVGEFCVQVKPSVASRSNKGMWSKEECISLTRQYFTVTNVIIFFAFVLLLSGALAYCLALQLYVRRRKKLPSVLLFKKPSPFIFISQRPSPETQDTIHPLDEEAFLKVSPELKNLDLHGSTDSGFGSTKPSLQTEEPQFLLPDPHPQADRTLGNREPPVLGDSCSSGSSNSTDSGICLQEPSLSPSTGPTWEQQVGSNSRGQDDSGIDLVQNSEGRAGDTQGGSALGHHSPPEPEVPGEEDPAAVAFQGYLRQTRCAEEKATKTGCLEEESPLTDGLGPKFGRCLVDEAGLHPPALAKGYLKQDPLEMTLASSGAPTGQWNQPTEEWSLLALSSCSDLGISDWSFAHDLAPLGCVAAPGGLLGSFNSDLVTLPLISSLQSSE
T2 sequence (looked up) 2: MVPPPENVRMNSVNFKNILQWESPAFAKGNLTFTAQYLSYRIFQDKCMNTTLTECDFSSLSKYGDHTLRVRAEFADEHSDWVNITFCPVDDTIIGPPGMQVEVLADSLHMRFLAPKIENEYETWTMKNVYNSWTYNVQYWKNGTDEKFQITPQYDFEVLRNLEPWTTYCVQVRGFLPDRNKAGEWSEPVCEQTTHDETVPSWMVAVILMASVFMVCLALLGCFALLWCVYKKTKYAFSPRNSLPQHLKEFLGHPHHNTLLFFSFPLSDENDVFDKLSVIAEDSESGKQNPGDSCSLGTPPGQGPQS

Assay [3] addresses IL-22 receptors R1 and R2 on HEK-Blue IL-22 reporter cells (UniProt Q8N6P7).
In assay [4] the target is IL-10 receptors R1 and R2 on HEK-Blue IL-10 reporter cells (UniProt Q13651). The source holds these as a separate data set.

Chain of IL-10 ORF (WT human IL-10 expressed and secreted by M. pneumoniae) (P22301 other isoform, or with tags, fused parts or gaps limits assumed): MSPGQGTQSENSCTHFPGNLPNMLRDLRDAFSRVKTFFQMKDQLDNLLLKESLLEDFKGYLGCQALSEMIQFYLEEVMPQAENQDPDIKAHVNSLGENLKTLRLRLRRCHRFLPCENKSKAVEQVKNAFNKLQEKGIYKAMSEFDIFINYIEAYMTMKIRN
Chain of IL-22 receptors R1 and R2 on HEK-Blue IL-22 reporter cells (Q8N6P7 16-574 limits assumed): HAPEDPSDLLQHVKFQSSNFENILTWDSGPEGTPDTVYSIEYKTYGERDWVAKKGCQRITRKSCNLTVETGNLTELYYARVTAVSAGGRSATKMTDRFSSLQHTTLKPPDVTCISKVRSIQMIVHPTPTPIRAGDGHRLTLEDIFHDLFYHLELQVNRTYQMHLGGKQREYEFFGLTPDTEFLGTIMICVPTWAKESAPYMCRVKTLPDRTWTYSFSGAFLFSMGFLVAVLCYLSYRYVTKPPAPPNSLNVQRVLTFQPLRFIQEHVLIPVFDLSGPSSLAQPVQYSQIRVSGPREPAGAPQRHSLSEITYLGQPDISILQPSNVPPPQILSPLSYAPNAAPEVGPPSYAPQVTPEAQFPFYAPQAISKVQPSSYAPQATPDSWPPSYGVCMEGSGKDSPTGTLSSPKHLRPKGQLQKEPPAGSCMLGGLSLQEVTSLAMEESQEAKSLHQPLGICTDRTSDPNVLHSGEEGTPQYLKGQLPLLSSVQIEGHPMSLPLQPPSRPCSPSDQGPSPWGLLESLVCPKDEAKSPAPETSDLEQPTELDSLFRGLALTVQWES
Chain of IFNg WT (crystallised version of IFNg of PDB 6e3k) (P01579 other isoform, or with tags, fused parts or gaps limits assumed): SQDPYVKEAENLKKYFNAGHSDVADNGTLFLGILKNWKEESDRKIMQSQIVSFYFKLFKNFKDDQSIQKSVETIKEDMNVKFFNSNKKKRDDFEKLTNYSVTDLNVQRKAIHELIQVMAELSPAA

On to “IFNg WT (crystallised version of IFNg of PDB 6e3k) (from UniProt P01579 24-147) (ligand)”, for which the EC50 (HEK Dual cells responding to IFNγ) in assay [1] worked out at 86.6 pM.
As for “IL-10 ORF (WT human IL-10 expressed and secreted by M. pneumoniae) (from UniProt P22301 19-178) (ligand)”, in assay [2], the Apparent Kd (M) average (HEK-Blue IL-10 SEAP reporter, absorbance 630 nm, saturation binding fit) was determined as 1.98e-10 M and the Fold change-apparentKD (against IL-10 ORF) was found to be 1 fold.
Substance “WT22 (IL-22 WT used as reference for the interface mutants) (from UniProt Q9GZX6 34-179) (ligand)” returned an app KD (HEK-Blue IL-22 reporter) in assay [3] of 128 pM.
“hIL-10r (commercial recombinant human IL-10, #200-10, Peprotech) (from UniProt P22301 19-178) (ligand)”: in assay [4], the Apparent Kd (M) average (HEK-Blue IL-10 SEAP reporter, absorbance 630 nm, saturation binding fit) was 4.61e-10 M and the Fold change-apparentKD (against IL-10 ORF) came out at 0.43 fold.

Source of the values: patent US20260008830A1.
